By EC50 is commonly meant the midpoint of the concentration-response curve.

Sequences and labels used below:
B1: V1005 (antibody, V domains shown)
VH: QVTLKESGPGKLQPSQTLSLTCSFSGFSLSTSGMGVSWIRQPSGKGLEWLAHIYWDDDKRYNPSLKSRLTISKDTSRNQVFLKITSVDTADTATYYCARGWLRRKDYSAMDYWGQGTSVTVSS
VL: NIVMTQSPKSMSMSVGERVTLSCKASEHVGPYVSWYQHKAEQSPKLLIYGASNRYTGVPDRFTGSGSATDFTLIISSVQAEDLADYHCGQTYSYPLTFGAGTKLELK
B2: V0036 (antibody, V domains shown)
VH: QVTLKESGPGILQPSQTLNLTCSFSGFSLSTSGMGVSWIRQPSGKGLEWLAHIYWDDDKRYNPSLKSRLTISKDTSRNQVFLKITSVDTADTATYYCVRRSRRGNYDYWGQGTTLTVSS
VL: not shown
B3: V0025 (antibody, V domains shown)
VH: QVQLQQPGTELVKPGASVKLSCKASGFTFTRFWMHWVKQRPGQGLEWIGNINPNNGETNYNEKFKIKAALTVDKSSTTAYMQLSSLTSEDSAVYSCARGTGTGAMDYWGQGTSVTVSS
VL: DVVMTQTPLSLPVSLGDQASISCRSSQSLVHSTGNTYLYWYLQKPGQSPKLLIYRVSTRFSGVPDRFSGSGSGTDFTLKINRVEAEDLGVYFCFQGTHVPRTFGGGTKLEIK
B4: V0001 (antibody, V domains shown)
VH: EVQLVESGGGLVQPKGSLKLSCAASGFTFNTYAMYWVRQAPGKGLEWVARIRSKSSNYATYYADSVKDRFTISRDDSQSKLYLQMNNLKTEDTAMYYCVREGLWYYFDYWGQGTTLTVSS
VL: DIQMTQITSSLSASLGDRVTISCRASQDISNYLNWYQQKPDGTVKLLIYSTSRLHSGVPSRFSGSGSGTDYSLTISNLEPEDIATYYCQQYSKLLPTFGSGTKLEIK
B5: V0043 (antibody, V domains shown)
VH: DVQLQESGPGLVKPSQSLSLTCSVSGYSITTNYFWNWIRLFPGNKLEWMGYISYDGSNVYNPSLKNRISITRDTSKNQFFLKLNSLTTEDTATYYCARGPPSAYWGQGTLVTVSA
VL: SIVMTQSPKFLPVSAGDRVTMTCKASQSVGNNVAWYQQKPGQSPKLLIYYASNRYTGVPDRFTGSGSGTDFTLTISSVQVEDLVVYFCQQHYSSPLTFGAGTKLELK
B6: V0042 (antibody, V domains shown)
VH: DVQLQESGPGLVKPSQSLSLTCSVTGYSITTNYYWNWIRQFPGNKLEWMGYITYDGIKTYNPSLNNRISITRDTSKNQFFLKLNSVTTEDTATYYCARGPGLDYWGQGTTLTVSS
VL: B5 VL with S7T, G64A, L73F, V84A, L96Y, A100S, K103N, L106I
B7: V0045 (antibody, V domains shown)
VH: DVQLQESGPGLVKPSQSLSLTCSVTGYSITTNYYWNWIRQFPGNKLEWMGYISYDGSSNYNPSLKNRISITRDTSKNQFFLNLNSVTTEDTATYYCARDLLGYWGQGTTLTVSS
VL: B5 VL with S7T, V29L, L73F, V84A, L96R, A100G, L106I, K107R
B8: V0044 (antibody, V domains shown)
VH: B5 VH with S25T, F34Y, L40Q, S53T, V59N, L86V, S102T
VL: B5 VL with S1N, S7T, V13I, S14A, T20I, A34G, Q38L, Y50F, L73F, V84A
B9: V0049 (antibody, V domains shown)
VH: QVTLKESGPGILQSSQTLSLTCSFSGFSLSTSGMGVSWIRQPSGKGLEWLAHIYWDDDKRYNPSLKSRLKISKDTSRNQVFLKITSVDTADTATYYCARRGYYSNGNYFDYWGQGTTLTVSS
VL: QIVLTQSPTTMAASPGEKITITCSASSSISSTYLHWYQQKPGFSPKLLIYRTSNLASGVPARFSGSGSGTSYSLTIGTMEAEDVATYYCQQGSSIPRYTFGGGTKLEIK
B10: V00010 (antibody, V domains shown)
VH: QIQLVQSGPELKKPGETVKISCKASGYSFTTYGMSWVKQAPGKGLKWMGWINTYSGVPTYADDFKERFAFSLETSASTAYLQINNLKNEDTSTYFCARRGGLYDGYYGYWGQGTTLTVSS
VL: DIVMSQSPSSLAVSAGEKVTMSCKSSQSLLSSRTRKNYLAWYQQKPGQSPKLLIYWASTRESGVPDRFTGSGSGTDFTLTITTVQAEDLAVYYCKQSYNLWTFGGGTKLEIK
B11: V0006 (antibody, V domains shown)
VH: QVQLKESGPGLVAPSQSLSITCTVSGFSLTSYAISWVRQPPGKSLEWLGVIWTGGGSKYNSALKSRLSISKDNSKSQVFLKMNSLQTDDTARYYCVRNYDYYRYEGFDYWGQGTLVTVSA
VL: DIKMTQSPSSLSASLGEGVSLTCRASQDIGSSLHWLQQKPDGTIKRLIYGTSTLDSDVPKRFSGSRSGSDYSLTISSLESEDFVDYFCLQYATSPPTFGGGTKLEIK
B12: V0007 (antibody, V domains shown)
VH: EVQLVESGGDLVKPGGSLKLSCAASGFTFSSYGLSWVRQTPDKRLEWVATISSGGDYTYYPDSVKGRFTISRDNAKNILYLHMSSLKSEDTAMYYCAREDGYYVGTMDYWGQGTSVTVSS
VL: DIQMTQSPSSLSASLGERVSLTCRASQDIGSSLNWLQQEPDGTFKRLIYATSSLDSGVPKRFSGSRSGSDYSLTISSLESEDFVDYYCLQYDSLPLTFGAGTKLELK
B13: V1003 (antibody, V domains shown)
VH: EVKLVESGGGLVKPGGSLKLSCAASGFTFSSYAMSWVRQIPEKRLEWVAAINSNGGSTYYPDTVKDRFTISRDNAKNTLYLQMSSLRSEDTALYYCVRQGWDAWFAYWGQGTLVAVSA
VL: DIKMTQSPSSMYASLGERVTITCKASQDINSYLSWFQQKPGKSPKTLIYRANRLVDGVPSRFSGSGSGQDYSLTISSLEYEDMGIYYCLQYDEFPLTFGAGTKLELK
B14: V1001 (antibody, V domains shown)
VH: EVQLVESGGGLVKPGGSLKLSCAASGFTFSSYAMSWVRQTPEKRLEWVAAINSNGGRTYYPDTVKDRFTISRDNAKNTLYLQMSSLRSEDTALYYCARQGHSNYYEAWFAYWGQGTLVTVSA
VL: B13 VL with V19L, T20S, S34N, Y80D, K107R
B15: V1004 (antibody, V domains shown)
VH: B13 VH with K3Q, I40T, T58I, S84I, V97A, W101G, D102S, A103S, A106V, A115T
VL: B13 VL with T5I, S77R, M83V, I85L, L89Q
B16: V0008 (antibody, V domains shown)
VH: QVQLKESGPGLVAPSQSLSITCTVSGFSLTTYAISWVRQPPGKGLEWLGVIWTGGGTDFNSALKSRLSISKDNSKSQVFLKMISLQTNDTARYYCARKGGSYYSTTYVGLYAMDYWGQGTSVTVSS
VL: DIQMTQTTSSLSASLGDRVTISCRASQDISNYLNWYQQKPAGTVKLLIYYTSRLHSGVPSRFSGSGSGTDYSLTISNLEQEDVATYFCQQGNTLPWTFGGGSKLEIK
B17: V0003 (antibody, V domains shown)
VH: QVQLQQPGTELVKPGASVKLSCKASGYTFTKNWLHWVKQRPGQGLEWIGYINPSNGATNYNERFKSKASLTVDKSSTTAYMQLSSLTSEDSAVYYCARSGGWLLPYYAMDYWGHGTSVTVSS
VL: EIVLIQSPALMAASPGEKVTITCSVSSSISSSNLHWYQQQSGTSPKPWILATSNLASGVPVRFSGSGSGTSYSLTISSMEAEDAATYYCQQWSSYPFTFGTGTKLEIK
B18: V2001 (antibody, V domains shown)
VH: DVQLVESGGGLVQPGGSRKLSCAASGFIFSSFGMHWVRQAPEKGLEWVAYISSGSATIYYADTVKGRFTISRDNPKNTLFLQMTSLRSEDTAMYYCARKRGSGNYVSAMDFWGQGTSVTVSS
VL: DVLMTQTPLSLPVSLGDQASISCRSGQSIVHSNGNTYLEWYLQKPGQSPKLLIYKVSNRFSGVPDRFSGSGSGTDFTLKISRVEAEDLGVYYCFQGSHVPWTFGGGTKLEIK
B19: V0047 (antibody, V domains shown)
VH: EVQLVESGGGLVKPGGSLKLSCAASGFTFSDYGMHWVRQAPEKGLEWVAYISSGSRTIYYADTVKGRFTISRDNAKNTLFLQMTSLRSEDTAMYYCARSPYAMDYWGQGTSVTVSS
VL: B18 VL with L3V, G26S, I29L, E39H, Y92F, F94S, G96S, S97T
B20: V00011 (antibody, V domains shown)
VH: EVQLVESGGGLVKPGGSLKLSCAASGFTFSDYGMYWVRQAPEKGLEWVAYISSGSTTIYYADTVKGRFTISRDNAKNTLFLQMTSLRSEDTAMYYCAGHWYFDVWGTGTTVTVSS
VL: B18 VL with L9V, G26S, Y37H, G96D

Changes are numbered by the printed parent chain.

This test deals with enriched paired helical filament tau protein (ePHF) (human, phosphorylated residues of pathological tau, sites not stated). The experiment in a line: direct ELISA. How it is done:
Variable domain nucleic acid sequences from antibodies obtained from immunizations described above were used to prepare recombinant mouse IgG antibodies. These candidate antibodies were analyzed for binding to ePHF and specificity for ePHF over wild type tau by direct ELISA.
For direct ePHF and wildtype tau ELISA, plates were first coated with ePHF or wild type tau. Antigen solutions were prepared in PBS and 50 μL were pipetted into each well. Plates were covered and incubated for one hour at 37° C. or overnight at 4° C. Plates were then washed and blocked by addition of 150 μl of blocking buffer to each well and incubated one hour at room temperature. Plates were then washed before addition of serially diluted candidate antibody samples prepared in blocking buffer. Detection of candidate antibody binding was carried out by washing plates and adding a solution of enzyme-labeled secondary antibody in blocking buffer to each well. Secondary antibody binding was detected by addition of substrate and spectrophotometric analysis of resulting reaction product.
A general note: In an ELISA, binding on a coated surface is turned into a signal by an enzyme label.
In turn, B1 displayed an EC50 of 0.48 nM.
As for B2, the EC50 amounted to 6.43 nM.
The figure for B3 is 0.098 nM; for B4 it is 0.126 nM.
Next, B5: 0.581 nM; B6: 0.869 nM; B7: 0.618 nM.
The figure for B8 is 0.209 nM; for B9 it is 0.053 nM.
The molecule B10 gave an EC50 of 0.134 nM.
Next, B11: 0.861 nM.
B12 returned an EC50 of 0.74 nM.
B13 had an EC50 of 0.234 nM.
The figure for B14 is 0.401 nM; for B15 it is 0.069 nM.
Next, B16: 1.54 nM.
The figure for B17 is 2.83 nM; for B18 it is 0.237 nM; for B19 it is 0.118 nM.
Turning to B20, the EC50 worked out at 0.171 nM.

The values above are taken from patent publication US12709641B2, “Tau binding compounds” (VOYAGER THERAPEUTICS, INC., dated 2026).
